Ten molecules from US20260207759A1 (SUZHOU SUNCADIA BIOPHARMACEUTICALS, published 2026) can be followed below.

Changes are numbered by the printed parent chain. Names may count otherwise. Like-named read-outs stand apart in the source and are kept apart here.

In assay [1] the target is T1, human CD40 on the cell surface (Raji cells, HEK-Blue CD40L cells, primary human B cells and DCs) (human, UniProt P25942 21-277). The assay can be described thus: cell-based or functional assay.
In assay [2] the target is T1, human CD40 on the cell surface (Raji …). The assay can be described thus: flow cytometry (FACS) binding to Raji cells. (Flow cytometry measures light scatter and fluorescence of single cells or particles in a stream.)
Assay [3] shares this target. The assay can be described thus: flow cytometry (FACS) binding to Raji cells. The source holds these as a separate data set.
Assay [4] has the same target. The assay can be described thus: cell-based or functional assay. This is another data set of the same source.
Assay [5] shares this target. The assay can be described thus: cell-based or functional assay. The source holds these as a separate data set.
Assay [6] deals with human FcRn antigen (purchased from AcroBiosystem) (human, UniProt P55899 24-297; P61769 21-119). The assay can be described thus: SPR (Biacore), antibody captured on anti-human Fab chip, human FcRn as analyte, steady state model.
Assay [7] deals with T2, his-tagged cynomolgus monkey CD40 recombinant protein (cyno-CD40-his, Acrobiosystems Cat. #CD0-C52H6) (cynomolgus monkey).
T2 construct: Purchased reagent
The assay can be described thus: SPR (Biacore), antibody captured on anti-human Fc chip, His-tagged CD40 as analyte, 1:1 model.

Assay [8] concerns the target T3, his-tagged human CD40 recombinant protein (h-CD40-his, Acrobiosystems Cat. #CD0-H5228) (human, UniProt P25942 21-193).
T3 construct: Purchased reagent; also called His-tagged human CD40 antigen; not shown: His tag
The assay is described as above.

The target in assay [9] is T1, human CD40 on the cell surface (Raji …). The assay can be described thus: cell-based or functional assay. The source holds these as a separate data set.
Assay [10] deals with T2, his-tagged cynomolgus monkey CD40 …. The assay can be described thus: SPR (Biacore), antibody captured on anti-human Fc chip, His-tagged CD40 as analyte, 1:1 model. This is another data set of the same source. Background: Surface plasmon resonance follows binding to a sensor surface in real time, without labels.
For assay [11], the target named is T3, his-tagged human CD40 recombinant …. Described as above. The source holds these as a separate data set.
In assay [12] the target is T1, human CD40 on the cell surface (Raji …). The assay can be described thus: cell-based or functional assay. This is another data set of the same source.

T1 sequence (P25942 21-277): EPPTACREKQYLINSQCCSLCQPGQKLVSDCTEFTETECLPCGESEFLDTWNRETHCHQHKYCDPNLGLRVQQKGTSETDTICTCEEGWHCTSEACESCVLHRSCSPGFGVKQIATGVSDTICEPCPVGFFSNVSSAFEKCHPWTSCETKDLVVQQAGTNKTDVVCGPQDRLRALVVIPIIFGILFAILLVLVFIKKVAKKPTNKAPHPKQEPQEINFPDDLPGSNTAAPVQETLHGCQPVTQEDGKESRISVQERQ
T3 sequence (P25942 21-193 limits assumed): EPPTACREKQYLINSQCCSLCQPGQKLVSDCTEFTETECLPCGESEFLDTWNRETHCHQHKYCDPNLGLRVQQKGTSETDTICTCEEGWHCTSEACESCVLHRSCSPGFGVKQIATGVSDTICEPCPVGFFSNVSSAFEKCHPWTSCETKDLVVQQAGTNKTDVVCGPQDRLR
Sequence of human FcRn antigen (purchased from AcroBiosystem) (P55899 24-297 limits assumed, chain 1 of 2): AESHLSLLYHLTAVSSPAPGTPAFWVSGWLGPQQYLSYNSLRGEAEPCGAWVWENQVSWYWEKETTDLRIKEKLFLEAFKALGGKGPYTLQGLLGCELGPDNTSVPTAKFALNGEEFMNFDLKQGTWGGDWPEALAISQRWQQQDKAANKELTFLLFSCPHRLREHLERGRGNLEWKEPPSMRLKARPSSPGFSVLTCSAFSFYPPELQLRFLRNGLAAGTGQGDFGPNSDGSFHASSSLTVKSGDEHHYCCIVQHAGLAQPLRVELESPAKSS
Sequence of human FcRn antigen (purchased from AcroBiosystem) (P61769 21-119 limits assumed, chain 2 of 2): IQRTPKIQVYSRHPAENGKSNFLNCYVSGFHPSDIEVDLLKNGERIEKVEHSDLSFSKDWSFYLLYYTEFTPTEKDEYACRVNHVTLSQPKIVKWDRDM

B1: 9E6 human-rabbit chimeric anti-CD40 antibody (antibody, V domains shown)
VH: QSVRESEGGLVKPTDTLTLTCTVSGFSLSSYDMSWVRQAPGNGLEWIGAIGGAGGTYYASWAKSRSTITRNTNLNTVTLKMSSLTAADTATYFCARGWTRLDLWGQGTLVTVSS
VL: DIVLTQTPSPVSGAVGGTVTIKCQASEDISSNLAWYQQKPGQPPKLLIFPASNLASGVSSRFKGSGSGTEFTLTISDLECADAATYYCQGGYWTSTSNFGNGFGGGTEVVVK
notes: Rabbit variable regions joined to a human IgG1 constant region with N297A (Eu numbering) and a human kappa constant region
One may read the EC50 as the concentration that produces a half-maximal response. Regarding B1, the “Reporter gene cell activity IC50 (SEAP, HEK-Blue CD40L cells stimulated with CD40L)” value in assay [1] came to 0.221 nM. For the same molecule, the EC50 in assay [2] was found to be 0.608 nM; in assay [3], 0.895 nM.

B2: 9E6-L4H2 humanized anti-CD40 antibody (antibody, human IgG1, kappa, N297A)
heavy: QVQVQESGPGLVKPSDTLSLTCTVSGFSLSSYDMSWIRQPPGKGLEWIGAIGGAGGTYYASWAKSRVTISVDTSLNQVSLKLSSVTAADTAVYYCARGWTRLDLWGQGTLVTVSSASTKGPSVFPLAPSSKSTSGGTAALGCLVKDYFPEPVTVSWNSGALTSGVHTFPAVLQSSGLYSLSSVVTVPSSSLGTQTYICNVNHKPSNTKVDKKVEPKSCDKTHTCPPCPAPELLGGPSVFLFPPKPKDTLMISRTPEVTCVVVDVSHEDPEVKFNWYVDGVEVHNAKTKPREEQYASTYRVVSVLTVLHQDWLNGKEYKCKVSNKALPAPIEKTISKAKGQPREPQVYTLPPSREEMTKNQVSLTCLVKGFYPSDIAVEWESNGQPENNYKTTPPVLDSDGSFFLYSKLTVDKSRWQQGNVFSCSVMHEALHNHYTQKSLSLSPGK
light: DIQLTQSPSFLSASVGDRVTITCQASEDISSNLAWYQQKPGKPPKLLIFPASNLASGVPSRFSGSGSGTEFTLTISSLQPEDFATYYCQGGYWTSTSNFGQGFGGGTKVEIKRTVAAPSVFIFPPSDEQLKSGTASVVCLLNNFYPREAKVQWKVDNALQSGNSQESVTEQDSKDSTYSLSSTLTLSKADYEKHKVYACEVTHQGLSSPVTKSFNRGEC
notes: human IgG1 N297A (Eu) heavy chain and kappa light chain
What is called Kd is the free concentration of one partner at which half of the binding sites on the other are occupied at equilibrium, for simple one-to-one binding. The term koff denotes the first-order rate constant of dissociation. By kon is commonly meant the rate constant with which the complex forms. In the case of B2, in [4], the “IC50 for the inhibition of CD40 reporter gene cell activity (Experiment 2)” value was 0.5 nM. Besides, in assay [5], the “B cell activation assay, CD19+CD69+ %, IC50” value stood at 0.14 nM and the “B cell activation assay, CD19+CD69+ MFI, IC50” value stood at 0.07 nM. Further, the Kd in [6] came to 293 nM. Also, in assay [7], the Kd was 0.121 nM, the koff was found to be 6.23e-05 s⁻¹ and the kon was found to be 514000 M⁻¹ s⁻¹. Further, in assay [8], the Kd amounted to 0.536 nM, the koff is 0.000221 s⁻¹ and the on-rate constant (kon) came out at 413000 M⁻¹ s⁻¹. Also, in assay [9], the “IC50 in DC cell activation assay system, CD80 MFI” value was 3.44 nM; the “IC50 in DC cell activation assay system, CD86 MFI” value amounted to 3.72 nM; the “IC50 in DC cell activation assay system, IL-12/23 p40” value was determined as 1.85 nM; the “IC50 in DC cell activation assay system, TNFα” value came to 0.7 nM. For the same molecule, the EC50 in assay [3] amounted to 0.87 nM. Further, in [10], the Kd was 0.294 nM, the koff amounted to 0.000138 s⁻¹ and the kon amounted to 468000 M⁻¹ s⁻¹. Further, in assay [11], the Kd stood at 0.926 nM, the koff is 0.000377 s⁻¹ and the kon is 407000 M⁻¹ s⁻¹. Moreover, in assay [12], the “B cell activation assay, CD19+CD69+%, Donor 1, IC50” value was determined as 0.44 nM and the “B cell activation assay, CD19+CD69+%, Donor 2, IC50” value came out at 0.52 nM.

B3: 9E6-L4H2-AAYTE anti-CD40 antibody (IgG1 with L234A, L235A, M252Y, S254T, T256E) (antibody)
heavy: QVQVQESGPGLVKPSDTLSLTCTVSGFSLSSYDMSWIRQPPGKGLEWIGAIGGAGGTYYASWAKSRVTISVDTSLNQVSLKLSSVTAADTAVYYCARGWTRLDLWGQGTLVTVSSASTKGPSVFPLAPSSKSTSGGTAALGCLVKDYFPEPVTVSWNSGALTSGVHTFPAVLQSSGLYSLSSVVTVPSSSLGTQTYICNVNHKPSNTKVDKKVEPKSCDKTHTCPPCPAPEAAGGPSVFLFPPKPKDTLYITREPEVTCVVVDVSHEDPEVKFNWYVDGVEVHNAKTKPREEQYNSTYRVVSVLTVLHQDWLNGKEYKCKVSNKALPAPIEKTISKAKGQPREPQVYTLPPSREEMTKNQVSLTCLVKGFYPSDIAVEWESNGQPENNYKTTPPVLDSDGSFFLYSKLTVDKSRWQQGNVFSCSVMHEALHNHYTQKSLSLSPGK
light: B2 light
Molecule B3 came in with a Kd in [6] of 39.8 nM.

B4: 9E6-L2H1 humanized anti-CD40 antibody (antibody, human IgG1, V domains shown)
VH: EVQLQESGPGLVKPSDTLSLTCTVSGFSLSSYDMSWIRQPPGKGLEWIGAIGGAGGTYYASWAKSRVTISVDTSLNQVSLKLSSVTAADTAVYYCARGWTRLDLWGQGTLVTVSS
VL: DIQLTQSPSFLSASVGDRVTITCQASEDISSNLAWYQQKPGKPPKLLIFPASNLASGVPSRFSGSGSGTEFTLTISSLQPEDFATYYCQGGYWTSTSNFGSGFGGGTKVEIK
In assay [3], B4 yielded an EC50 of 1.99 nM.

B5: 9E6-L1H2 humanized anti-CD40 antibody (antibody, human IgG1, V domains shown)
VH: B4 VH with E1Q, L4V
VL: B4 VL with S101N, G102V
With B5, the response in [3] was half-maximal at 1.05 nM (EC50).

B6: 9E6-L3H2 humanized anti-CD40 antibody (antibody, human IgG1, V domains shown)
VH: B4 VH with E1Q, L4V
VL: B4 VL with S101T
In the case of B6, the response in assay [3] was half-maximal at 1.15 nM (EC50).

B7: 9E6-L3H1 humanized anti-CD40 antibody (antibody, human IgG1, V domains shown)
VH: B4 VH
VL: B4 VL with S101T
In [3], B7 returned an EC50 of 1.06 nM.

B8: 9E6-L2H2 humanized anti-CD40 antibody (antibody, human IgG1, V domains shown)
VH: B4 VH with E1Q, L4V
VL: B4 VL
With B8, the 50% effective concentration (EC50) in [3] came to 1.66 nM.

B9: 9E6-L4H1 humanized anti-CD40 antibody (antibody, human IgG1, V domains shown)
VH: B4 VH
VL: B4 VL with S101Q
As to B9, the response in assay [3] was half-maximal at 0.928 nM (EC50).

B10: 9E6-L1H1 humanized anti-CD40 antibody (antibody, human IgG1, V domains shown)
VH: B4 VH
VL: B4 VL with S101N, G102V
As to B10, in [3], the EC50 came to 1.08 nM.
